In general, Kd refers to a measure of binding affinity in units of concentration. As a reminder, the IC50 is the concentration that inhibits the measured activity by half.

The target in one assay is HLA-A*02:03. Description: IEDB peptide-MHC binding, purified MHC/competitive/fluorescence; filed as Kd, often an IC50 or EC50 that approximates it; ≥ and ≤ were set here for values at or beyond the usual limits of such assays. Conditions: source organism: Human immunodeficiency virus 1.
The next assay deals with HLA-A*68:02. The assay is described as above. The conditions noted are these: source organism: Human immunodeficiency virus 1.
For assay [1], the target named is HLA-A*02:01. Description: IEDB peptide-MHC binding, purified MHC/competitive/fluorescence; ≥ and ≤ were set here for values at or beyond the usual limits of such assays. Conditions: source organism: Zaire ebolavirus.
Assay [2] addresses HLA-A*11:01. The assay is described as above.
Assay [3] addresses HLA-B*07:02. The assay is described as above.
Assay [4] deals with HLA-B*08:01. The description is as above.
Assay [5] addresses HLA-A*02:01. Description: IEDB peptide-MHC binding, purified MHC/competitive/radioactivity; ≥ and ≤ were set here for values at or beyond the usual limits of such assays.
The target of a further assay is HLA-C*08:02. Description: IEDB peptide-MHC binding, purified MHC/direct/fluorescence; filed as Kd, often an IC50 or EC50 that approximates it; ≥ and ≤ were set here for values at or beyond the usual limits of such assays.
The target in assay [6] is HLA-A*02:01. Description: IEDB peptide-MHC binding, purified MHC/competitive/fluorescence; filed as Kd, often an IC50 or EC50 that approximates it; ≥ and ≤ were set here for values at or beyond the usual limits of such assays.
Assay [7] addresses HLA-A*26:01. Described as above.
Assay [8] deals with HLA-A*69:01. The assay is described as above. Conditions: source organism: Mus musculus.
Assay [9] addresses HLA-B*18:01. The assay is described as above.
A further assay deals with HLA-B*27:03. The assay is described as above.
For the next assay, the target named is HLA-B*39:01. The assay is described as above.
The target in the next assay is HLA-B*46:01. Described as above.
The target in assay [10] is HLA-B*51:01. The assay is described as above.
The target in a further assay is HLA-B*57:01. Described as above.
The next assay has as its target HLA-A*24:02. As to the kind of experiment: IEDB peptide-MHC binding, purified MHC/competitive/fluorescence; ≥ and ≤ were set here for values at or beyond the usual limits of such assays. The conditions noted are these: source organism: Zaire ebolavirus.
The target of assay [11] is HLA-A*26:01. Description: IEDB peptide-MHC binding, purified MHC/direct/fluorescence; filed as Kd, often an IC50 or EC50 that approximates it; ≥ and ≤ were set here for values at or beyond the usual limits of such assays. Conditions: source organism: Influenza A virus (A/shorebird/Delaware Bay/277/2000(H9N7)).
In another assay the target is HLA-A*26:02. The description is as above.
The next assay has as its target HLA-A*01:01. Described as above.
The target of another assay is HLA-A*02:12. The assay is described as above. Conditions: source organism: Vibrio vulnificus CMCP6.
The next assay addresses HLA-A*02:19. The description is as above. Conditions: source organism: Vibrio vulnificus CMCP6.
Assay [12] addresses HLA-A*03:01. The assay is described as above. Conditions: source organism: Vibrio cholerae.
A further assay concerns the target HLA-A*29:02. Described as above. Conditions: source organism: Vibrio vulnificus CMCP6.
For a further assay, the target named is HLA-A*31:01. Described as above. Conditions: source organism: Vibrio cholerae.
Assay [13] has as its target HLA-A*69:01. The description is as above. The conditions noted are these: source organism: Vibrio cholerae.
Assay [14] concerns the target HLA-B*07:02. Described as above. The conditions noted are these: source organism: Vibrio vulnificus CMCP6.
For assay [15], the target named is HLA-B*08:01. Described as above. The conditions noted are these: source organism: Vibrio vulnificus CMCP6.
For the next assay, the target named is HLA-B*15:09. Described as above. Conditions: source organism: Vibrio vulnificus CMCP6.
The target in assay [16] is HLA-B*18:01. The assay is described as above. The conditions noted are these: source organism: Vibrio cholerae.
The target in a further assay is HLA-B*27:05. The description is as above. Conditions: source organism: Vibrio cholerae.
The target in a further assay is HLA-B*40:01. The description is as above. Conditions: source organism: Vibrio cholerae.
For a further assay, the target named is HLA-B*48:01. Described as above. The conditions noted are these: source organism: Vibrio cholerae.
In assay [17] the target is HLA-B*51:01. The description is as above. The conditions noted are these: source organism: Vibrio vulnificus CMCP6.
The next assay deals with HLA-B*58:01. The assay is described as above. Conditions: source organism: Vibrio vulnificus CMCP6.
The target of another assay is HLA-A*02:06. Description: IEDB peptide-MHC binding, purified MHC/competitive/fluorescence; filed as Kd, often an IC50 or EC50 that approximates it; ≥ and ≤ were set here for values at or beyond the usual limits of such assays. The conditions noted are these: source organism: Vibrio cholerae V52.
The target in assay [18] is HLA-A*11:01. The assay is described as above. The conditions noted are these: source organism: Vibrio cholerae V52.
The target of the next assay is HLA-A*30:01. The description is as above. Conditions: source organism: Vibrio cholerae V52.
The target of a further assay is HLA-B*15:01. The description is as above.
A further assay addresses HLA-B*15:17. The description is as above.
Assay [19] deals with HLA-A*03:01. As to the kind of experiment: IEDB peptide-MHC binding, purified MHC/competitive/fluorescence; ≥ and ≤ were set here for values at or beyond the usual limits of such assays. The conditions noted are these: source organism: Variola virus.
Where [20] appears, read: source organism: Zaire ebolavirus.
The mark [21] stands for this setting: source organism: Vibrio cholerae V52.

For the sequence EELKSLYNTI, the results for the dissociation constant Kd with HLA-A*02:03 and in the assay with HLA-A*68:02 were no less than 20 µM and 1.78 µM, respectively.

Turning to GRRTRREAI, the IC50 is no less than 83.2 µM with HLA-A*02:01 [1], no less than 297 µM with HLA-A*11:01 [2] (setting [20]), no less than 102 µM with HLA-B*07:02 [3] (setting [20]) and 7.09 µM in the assay with HLA-B*08:01 [4] (setting [20]).

As for ILCGTCLIV, in the assay with HLA-A*02:01 [5] (source organism: Homo sapiens), the IC50 amounted to 0.192 µM.

For IMDKNIIL, the IC50 with HLA-A*02:01 [5] (source organism: Influenza A virus (A/Puerto Rico/8/1934(H1N1))) turned out to be 21 µM.

For LVDENQSWY, the Kd with HLA-C*08:02 (source organism: Mus musculus), with HLA-A*02:01 [6] (source organism: Mus musculus), with HLA-A*26:01 [7] (source organism: Mus musculus), with HLA-A*69:01 [8], with HLA-B*18:01 [9] (source organism: Mus musculus) and in the assay with HLA-B*27:03 (source organism: Mus musculus) was no less than 20 µM in each case. For the same sequence, the Kd with HLA-B*39:01 (source organism: Mus musculus), with HLA-B*46:01 (source organism: Mus musculus), in the assay with HLA-B*51:01 [10] (source organism: Mus musculus) and with HLA-B*57:01 (source organism: Mus musculus) was no less than 20 µM throughout.

As to MVTLRKERL, the 50% inhibitory concentration (IC50) with HLA-A*02:01 [1] is 18.8 µM; with HLA-A*24:02 it was 4.33 µM; in the assay with HLA-B*07:02 [3] (setting [20]), 10.4 µM; in the assay with HLA-B*08:01 [4] (setting [20]), 13.9 µM.

As for RLPRIFCSC, the IC50 with HLA-A*02:01 [5] (source organism: Homo sapiens) is 1.98 µM.

As for SLSHYFTLV, the IC50 in the assay with HLA-A*02:01 [5] (source organism: Trypanosoma cruzi) is 0.0016 µM.

For TTAKAMEQM, the Kd with HLA-A*26:01 [11] was determined as 0.0489 µM; with HLA-A*26:02 (source organism: Influenza A virus(A/swine/Shandong/fZC/2003(H9N2))), 0.002 µM.

As to TTILGLLPM, the equilibrium dissociation constant (Kd) was no less than 20 µM with HLA-A*01:01 (source organism: Vibrio cholerae); no less than 20 µM in the assay with HLA-A*02:12; no less than 20 µM in the assay with HLA-A*02:19; no less than 20 µM with HLA-A*03:01 [12]; no more than 0.001 µM with HLA-A*26:02 (source organism: Vibrio vulnificus CMCP6); 0.016 µM with HLA-A*29:02. For the same sequence, the dissociation constant (Kd) in the assay with HLA-A*31:01 was no less than 20 µM; in the assay with HLA-A*69:01 [13], 0.0016 µM; with HLA-B*07:02 [14], no less than 20 µM; with HLA-B*08:01 [15], no less than 20 µM; with HLA-B*15:09, 7.7 µM; with HLA-B*18:01 [16] it was 0.012 µM. For the same sequence, the dissociation constant (Kd) is no less than 20 µM in the assay with HLA-B*27:05; 0.189 µM with HLA-B*40:01; no less than 20 µM in the assay with HLA-B*48:01; no less than 20 µM with HLA-B*51:01 [17]; 0.329 µM in the assay with HLA-B*58:01; no less than 20 µM in the assay with HLA-A*02:01 [6] (setting [21]). Also, the equilibrium dissociation constant (Kd) is 0.0057 µM with HLA-A*02:06; no less than 20 µM with HLA-A*11:01 [18]; 0.677 µM with HLA-A*30:01; 0.308 µM with HLA-B*15:01 (setting [21]); 0.0387 µM with HLA-B*15:17 (setting [21]); 0.618 µM with HLA-B*39:01 (setting [21]). Further, the dissociation constant Kd in the assay with HLA-B*57:01 (setting [21]) stood at 3.58 µM.

For the sequence VARKHHTKI, the half-maximal inhibitory concentration (IC50) is no less than 110 µM in the assay with HLA-A*03:01 [19], no less than 70.5 µM with HLA-A*11:01 [2] (source organism: Variola virus), 10.5 µM with HLA-B*07:02 [3] (source organism: Variola virus) and no less than 348 µM with HLA-B*08:01 [4] (source organism: Variola virus).

Turning to WTDLFDNKV, the dissociation constant (Kd) with HLA-A*01:01 (source organism: Homo sapiens) is 0.002 µM; with HLA-C*08:02 (source organism: Homo sapiens) it was 0.254 µM; with HLA-A*02:01 [6] (source organism: Homo sapiens), no less than 20 µM; with HLA-A*26:01 [7] (source organism: Homo sapiens) it was no less than 20 µM; in the assay with HLA-B*15:01 (source organism: Homo sapiens), no less than 20 µM; in the assay with HLA-B*15:17 (source organism: Homo sapiens) it was no less than 20 µM. Also, the Kd with HLA-B*18:01 [9] (source organism: Homo sapiens), in the assay with HLA-B*27:03 (source organism: Homo sapiens), with HLA-B*39:01 (source organism: Homo sapiens), with HLA-B*46:01 (source organism: Homo sapiens), in the assay with HLA-B*51:01 [10] (source organism: Homo sapiens) and in the assay with HLA-B*57:01 (source organism: Homo sapiens) was no less than 20 µM throughout.

The values above are taken from the Immune Epitope Database (IEDB).
